According to patent US20250197451A1 (CAPITAL MEDICAL UNIVERSITY SCHOOL OF STOMATOLOGY, published 2025):

B1: peptide 177 (peptide)
peptide: LANKPLRRFKQEPED
B2: peptide 178 (peptide)
peptide: LRRFKQEPEDELPEA
B3: peptide 179 (peptide)
peptide: QEPEDELPEAPPKTR
B4: peptide 180 (peptide)
peptide: ELPEAPPKTRESDHS
B5: peptide 185 (peptide)
peptide: TEGAEGPEEKKKVKM
B6: peptide 186 (peptide)
peptide: GPEEKKKVKMRRKRR
B7: peptide 187 (peptide)
peptide: KKVKMRRKRRLPNKE
B8: peptide 188 (peptide)
peptide: RRKRRLPNKELSREL
B9: peptide 189 (peptide)
peptide: LPNKELSRELSKELN
B10: peptide 19 (peptide)
peptide: DFNYEYVQREALRVP
B11: peptide 190 (peptide)
peptide: LSRELSKELNHEIQR
B12: peptide 191 (peptide)
peptide: SKELNHEIQRTENSL
B13: peptide 192 (peptide)
peptide: HEIQRTENSLANENQ
B14: peptide 193 (peptide)
peptide: TENSLANENQQPIKS
B15: peptide 194 (peptide)
peptide: ANENQQPIKSEPESE
B16: peptide 195 (peptide)
peptide: QPIKSEPESEGEEPK
B17: peptide 196 (peptide)
peptide: EPESEGEEPKRPPGI
B18: peptide 197 (peptide)
peptide: GEEPKRPPGICERPH
B19: peptide 199 (peptide)
peptide: CERPHRFSKGLNGTP
B20: peptide 20 (peptide)
peptide: YVQREALRVPLIFRE
B21: peptide 200 (peptide)
peptide: RFSKGLNGTPRELRH
B22: peptide 203 (peptide)
peptide: QLGPSLRSPPRVISR
B23: peptide 204 (peptide)
peptide: LRSPPRVISRPPPSV
B24: peptide 206 (peptide)
peptide: PPPSVSPPKCIQMER
B25: peptide 207 (peptide)
peptide: SPPKCIQMERHVIRP
B26: peptide 21 (peptide)
peptide: ALRVPLIFREKDGLG
B27: peptide 211 (peptide)
peptide: PPDSLPLDDGAAHVM
B28: peptide 212 (peptide)
peptide: PLDDGAAHVMHREVW
B29: peptide 213 (peptide)
peptide: AAHVMHREVWMAVFS
B30: peptide 214 (peptide)
peptide: HREVWMAVFSYLSHQ
B31: peptide 215 (peptide)
peptide: MAVFSYLSHQDLCVC
B32: peptide 216 (peptide)
peptide: YLSHQDLCVCMRVCR
B33: peptide 217 (peptide)
peptide: DLCVCMRVCRTWNRW
B34: peptide 218 (peptide)
peptide: MRVCRTWNRWCCDKR
B35: peptide 22 (peptide)
peptide: LIFREKDGLGIKMPD
B36: peptide 220 (peptide)
peptide: CCDKRLWTRIDLNHC
B37: peptide 221 (peptide)
peptide: LWTRIDLNHCKSITP
B38: peptide 222 (peptide)
peptide: DLNHCKSITPLMLSG
B39: peptide 224 (peptide)
peptide: LMLSGIIRRQPVSLD
B40: peptide 226 (peptide)
peptide: PVSLDLSWTNISKKQ
B41: peptide 23 (peptide)
peptide: KDGLGIKMPDPDFTV
B42: peptide 230 (peptide)
peptide: NRLPGLRDLVLSGCS
B43: peptide 231 (peptide)
peptide: LRDLVLSGCSWIAVS
B44: peptide 232 (peptide)
peptide: LSGCSWIAVSALCSS
B45: peptide 233 (peptide)
peptide: WIAVSALCSSSCPLL
B46: peptide 234 (peptide)
peptide: ALCSSSCPLLRTLDV
B47: peptide 235 (peptide)
peptide: SCPLLRTLDVQWVEG
B48: peptide 236 (peptide)
peptide: RTLDVQWVEGLKDAQ
B49: peptide 237 (peptide)
peptide: QWVEGLKDAQMRDLL
B50: peptide 238 (peptide)
peptide: LKDAQMRDLLSPPTD
B51: peptide 239 (peptide)
peptide: MRDLLSPPTDNRPGQ
B52: peptide 24 (peptide)
peptide: IKMPDPDFTVRDVKL
B53: peptide 240 (peptide)
peptide: SPPTDNRPGQMDNRS
B54: peptide 242 (peptide)
peptide: MDNRSKLRNIVELRL
B55: peptide 243 (peptide)
peptide: KLRNIVELRLAGLDI
B56: peptide 244 (peptide)
peptide: VELRLAGLDITDASL
B57: peptide 245 (peptide)
peptide: AGLDITDASLRLIIR
B58: peptide 247 (peptide)
peptide: RLIIRHMPLLSKLHL
B59: peptide 248 (peptide)
peptide: HMPLLSKLHLSYCNH
B60: peptide 249 (peptide)
peptide: SKLHLSYCNHVTDQS
B61: peptide 25 (peptide)
peptide: PDFTVRDVKLLVGSR
B62: peptide 250 (peptide)
peptide: SYCNHVTDQSINLLT
B63: peptide 251 (peptide)
peptide: VTDQSINLLTAVGTT
B64: peptide 252 (peptide)
peptide: INLLTAVGTTTRDSL
B65: peptide 256 (peptide)
peptide: SDCNKVTDQCLSFFK
B66: peptide 259 (peptide)
peptide: RCGNICHIDLRYCKQ
B67: peptide 26 (peptide)
peptide: RDVKLLVGSRRLVDV
B68: peptide 260 (peptide)
peptide: CHIDLRYCKQVTKEG
B69: peptide 261 (peptide)
peptide: RYCKQVTKEGCEQFI
B70: peptide 264 (peptide)
peptide: AEMSVSVQFGQVEEK
B71: peptide 265 (peptide)
peptide: SVQFGQVEEKLLQKL

Biological target: T1, biotin-labelled EZH2 protein (UniProt Q15910 1-746, limits assumed, biotin label (EZ-link NHS-PEO4-Biotinylation kit))
T1 construct: Probe in solution (1 ug/ml) on the KDM2B peptide microarray; also called NHS-PEO4-Biotinylation-labelled EZH2 protein; recombinant protein
Experiment: KDM2B peptide array probed with biotin-EZH2 1 ug/ml, SA-HRP/ECL;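 note: Background-corrected optical density of each spot on the membrane, given as percent of the brightest spot (100%), color developed for 5 minutes; 100% is the highest background-corrected spot optical density on the membrane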

T1 sequence (Q15910 whole entry): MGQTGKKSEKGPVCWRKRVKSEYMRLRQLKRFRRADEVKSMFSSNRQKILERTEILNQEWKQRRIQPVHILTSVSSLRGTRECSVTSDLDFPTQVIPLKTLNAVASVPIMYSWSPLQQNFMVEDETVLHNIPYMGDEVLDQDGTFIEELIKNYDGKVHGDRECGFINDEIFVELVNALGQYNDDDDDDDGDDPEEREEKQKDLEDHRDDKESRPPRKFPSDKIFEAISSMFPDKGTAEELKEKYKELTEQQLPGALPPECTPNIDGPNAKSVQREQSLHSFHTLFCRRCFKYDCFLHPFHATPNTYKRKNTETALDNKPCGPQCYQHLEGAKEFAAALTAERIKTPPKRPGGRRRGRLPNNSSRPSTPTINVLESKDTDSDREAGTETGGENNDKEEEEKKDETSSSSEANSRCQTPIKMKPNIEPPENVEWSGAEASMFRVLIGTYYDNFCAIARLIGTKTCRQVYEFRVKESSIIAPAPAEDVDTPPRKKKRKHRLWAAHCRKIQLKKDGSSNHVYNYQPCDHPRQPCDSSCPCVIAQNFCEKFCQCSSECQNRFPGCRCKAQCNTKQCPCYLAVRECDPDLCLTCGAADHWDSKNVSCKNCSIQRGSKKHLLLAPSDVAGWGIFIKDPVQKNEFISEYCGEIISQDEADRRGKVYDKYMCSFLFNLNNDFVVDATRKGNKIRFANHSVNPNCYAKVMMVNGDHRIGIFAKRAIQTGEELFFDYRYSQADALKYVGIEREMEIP

Binder | Intensity (%)
B1 | 0%
B2 | 0%
B3 | 0.39%
B4 | 0%
B5 | 0%
B6 | 0%
B7 | 0.95%
B8 | 0.8%
B9 | 0%
B10 | 0%
B11 | 0.26%
B12 | 0%
B13 | 0.19%
B14 | 0%
B15 | 0%
B16 | 2.29%
B17 | 1.04%
B18 | 0%
B19 | 0.18%
B20 | 1.28%
B21 | 0.91%
B22 | 0%
B23 | 1.91%
B24 | 1.29%

Binder | Intensity (%)
B25 | 0%
B26 | 21.1%
B27 | 0%
B28 | 0%
B29 | 11.8%
B30 | 0%
B31 | 2.82%
B32 | 0%
B33 | 0.19%
B34 | 2.93%
B35 | 2.54%
B36 | 4.32%
B37 | 4.09%
B38 | 0%
B39 | 0%
B40 | 0.51%
B41 | 0%
B42 | 7.03%
B43 | 100%
B44 | 95.4%
B45 | 34.8%
B46 | 3.59%
B47 | 2.02%
B48 | 2.1%

Binder | Intensity (%)
B49 | 1.18%
B50 | 0.62%
B51 | 1%
B52 | 0%
B53 | 0%
B54 | 0.64%
B55 | 0.92%
B56 | 0.9%
B57 | 0.31%
B58 | 3.66%
B59 | 1.15%
B60 | 0%
B61 | 0.02%
B62 | 0%
B63 | 0%
B64 | 0.22%
B65 | 5.43%
B66 | 1.36%
B67 | 0.36%
B68 | 22.3%
B69 | 5.21%
B70 | 2.91%
B71 | 2.09%
